Test results published in PMC4932919, “Structural and functional studies of the glycoside hydrolase family 3 β-glucosidase Cel3A from the moderately thermophilic fungus Rasamsonia emersonii” (Acta Crystallographica. Section D, Structural Biology, 2016).
Blank lines part the entries; values can stand above or below the molecule they belong to.

What was measured:
HjCel3A = target: T1, HjCel3A (Trichoderma reesei, UniProt Q12715); test: differential scanning calorimetry; assay type: binding; settings: 1000 µM; 1 mM glucose; 10 mM sodium acetate pH 5.0; Tm without glucose 77.6 °C; scan rate 200°C/h; irreversible unfolding
T1 construct: gene bgl1
T1 sequence (Q12715 20-744): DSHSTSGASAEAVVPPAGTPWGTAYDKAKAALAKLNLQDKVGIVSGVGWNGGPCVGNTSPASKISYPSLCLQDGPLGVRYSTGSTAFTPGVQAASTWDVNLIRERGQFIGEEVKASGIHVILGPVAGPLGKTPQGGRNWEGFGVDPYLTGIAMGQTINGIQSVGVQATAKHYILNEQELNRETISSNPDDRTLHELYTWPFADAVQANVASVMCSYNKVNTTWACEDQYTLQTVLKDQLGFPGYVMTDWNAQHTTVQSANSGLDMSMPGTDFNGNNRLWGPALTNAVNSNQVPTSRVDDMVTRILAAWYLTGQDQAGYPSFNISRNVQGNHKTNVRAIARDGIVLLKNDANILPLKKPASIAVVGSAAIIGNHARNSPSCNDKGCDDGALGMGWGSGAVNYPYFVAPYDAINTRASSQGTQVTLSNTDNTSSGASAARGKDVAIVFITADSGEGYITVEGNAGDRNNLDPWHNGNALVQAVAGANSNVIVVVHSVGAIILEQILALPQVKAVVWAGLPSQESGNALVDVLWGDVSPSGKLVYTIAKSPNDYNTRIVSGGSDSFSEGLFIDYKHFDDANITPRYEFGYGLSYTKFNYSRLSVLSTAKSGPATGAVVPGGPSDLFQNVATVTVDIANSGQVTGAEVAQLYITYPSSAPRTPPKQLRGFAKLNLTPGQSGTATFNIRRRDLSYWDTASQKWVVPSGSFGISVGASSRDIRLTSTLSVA
Excerpt: differential scanning calorimetry on HjCel3A

[1] = target: β-glucosidase Cel3A from Rasamsonia emersonii (Rasamsonia emersonii); test: SEC; gel-filtration characterization of purified ReCel3A; conditions of this run not told
purified protein [2] = substrate: O=[N+]([O-])c1ccc(O[C@@H]2O[C@H](CO)[C@@H](O)[C@H](O)[C@H]2O)c(Cl)c1; test: purified protein; assay type: biochemical, Rasamsonia emersonii; settings: 100 mM phosphate pH 5.0, 37°C
purified protein [3] = substrate: O=[N+]([O-])c1ccc(O[C@@H]2O[C@H](CO)[C@@H](O)[C@H](O)[C@H]2O)cc1; test: purified protein; settings: 100 mM phosphate pH 5.0, 37°C
[4] = substrate: O=[N+]([O-])c1ccc(O[C@@H]2OC[C@@H](O)[C@H](O)[C@H]2O)c(Cl)c1; test: chromogenic substrate kinetics (method for CNPX not described); assay type: biochemical, Rasamsonia emersonii; settings: conditions for CNPX not stated, other chromogenic substrates pH 5.0, 37°C

T m (°C) (HjCel3A): 79.0 °C
Molecule: OC[C@H]1OC(O)[C@H](O)[C@@H](O)[C@@H]1O (some centres unmarked) [glucose]

stoichiometry N [1]: 2
Molecule: β-glucosidase Cel3A from Rasamsonia emersonii (enzyme)

B1: ReCel3A (Rasamsonia emersonii) (protein)
chain: NLAYSPPFYPSPWANGQGDWAEAYQKAVQFVSQLTLAEKVNLTTGTGWEQDRCVGQVGSIPRLGFPGLCMQDSPLGVRDTDYNSAFPAGVNVAATWDRNLAYRRGVAMGEEHRGKGVDVQLGPVAGPLGRSPDAGRNWEGFAPDPVLTGNMMASTIQGIQDAGVIACAKHFILYEQEHFRQGAQDGYDISDSISANADDKTMHELYLWPFADAVRAGVGSVMCSYNQVNNSYACSNSYTMNKLLKSELGFQGFVMTDWGGHHSGVGSALAGLDMSMPGDIAFDSGTSFWGTNLTVAVLNGSIPEWRVDDMAVRIMSAYYKVGRDRYSVPINFDSWTLDTYGPEHYAVGQGQTKINEHVDVRGNHAEIIHEIGAASAVLLKNKGGLPLTGTERFVGVFGKDAGSNPWGVNGCSDRGCDNGTLAMGWGSGTANFPYLVTPEQAIQREVLSRNGTFTGITDNGALAEMAAAASQADTCLVFANADSGEGYITVDGNEGDRKNLTLWQGADQVIHNVSANCNNTVVVLHTVGPVLIDDWYDHPNVTAILWAGLPGQESGNSLVDVLYGRVNPGKTPFTWGRARDDYGAPLIVKPNNGKGAPQQDFTEGIFIDYRRFDKYNITPIYEFGFGLSYTTFEFSQLNVQPINAPPYTPASGFTKAAQSFGQPSNASDNLYPSDIERVPLYIYPWLNSTDLKASANDPDYGLPTEKYVPPNATNGDPQPIDPAGGAPGGNPSLYEPVARVTTIITNTGKVTGDEVPQLYVSLGGPDDAPKVLRGFDRITLAPGQQYLWTTTLTRRDISNWDPVTQNWVVTNYTKTIYVGNSSRNLPLQAPLKPYPGI
notes: secreted mature protein, signal peptide 1-20 removed; codon-optimized gene expressed in Hypocrea jecorina RL-P37 derivative with four cellulases deleted; no tag; N-glycosylated; dimer in solution; visible residues Asp21-Pro855
Km (purified protein [2]): 400 µM | kcat (purified protein [2]): 14 s⁻¹ | kcat/Km (purified protein [2]): 36000 M⁻¹ s⁻¹ | Km (purified protein [3]): 400 µM | kcat (purified protein [3]): 5.4 s⁻¹ | kcat/Km (purified protein [3]): 14000 M⁻¹ s⁻¹ | Km [4]: 660 µM | kcat [4]: 0.23 s⁻¹ | kcat/Km [4]: 350 M⁻¹ s⁻¹
